Source: publication PMC5750218, “Protein-inspired antibiotics active against vancomycin- and daptomycin-resistant bacteria” (Nature Communications, 2018)
≈ marks a conversion by molar mass, not a printed value. Where “and” joins values, the source holds several entries; their conditions need not be identical. Identical values can stand only once. Like-named read-outs stand apart in the source and are kept apart here.

How the values were obtained:
MRSA = MRSA in 50% human serum / 50% MHB
Procedure: The compounds, along with standard antibiotics were serially diluted twofold across the wells of 96-well non-binding surface (NBS) polystyrene plates (Corning 3641). […] Standards ranged from 64 to 0.03 µg mL^−1 and compounds from 8 to 0.003 µg mL^−1 with final assay volumes of 100 µL per well. Gram-positive bacteria were cultured in Mueller Hinton broth (MHB) (Bactolaboratories, Cat. no. 211443) at 37 °C overnight. A sample of each culture was then diluted 40-fold in fresh MHB and incubated at 37 °C for 2–3 h. […] All the plates were covered and incubated at 37 °C for 24 h. MICs were the lowest concentration showing no visible growth.
The compounds, along with standard antibiotics, tested in BMD-MIC assay as above, in the presence of a mixture of 50% human serum (Sigma-Aldrich) and 50% MHB.

[1] = system: Vancomycin-resistant (VanA) Enterococcus faecium ATCC 51559; experiment: microbe, parasite or virus in culture
Procedure, shortened: (§1)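 Growth inhibition measured by broth microdilution (MHB, 37 °C, 24 h incubation). MIC defined visually as the lowest inhibitory concentration.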

[2] = system: Multi-drug-resistant S. pneumoniae ATCC 700677; experiment: microbe, parasite or virus in culture
Procedure, shortened: as §1

[3] = system: Vancomycin-intermediate S. aureus NRS1; experiment: microbe, parasite or virus in culture
Procedure, shortened: as §1

Cytotoxicity MTT assay [4] = assay type: cell-based, human; conditions: human
Procedure: Compound cytotoxicity was evaluated against HepG2 (ATCC-®HB-8065 liver hepatoceullular carcinoma) and HEK293 (ATCC®CRL-1573, embryonic kidney) human cell lines using standard (3-(4,5-dimethylthiazol-2-yl)−2,5-diphenyltetrazolium bromide (MTT) assay protocol with slight changes. In brief, HepG2 and HEK293 cells (assessed annually for mycoplasma contamination) were seeded as 1.5 × 10^4 cells per well in a clear 96-well tissue culture treated plate in a final volume of 100 μL in Dulbecco’s Modified Eagle Medium (DMEM)(GIBCO-Invitrogen #11995-073), in which 1% of FBS was added. Cells were incubated for 24 h at 37 °C, 5% CO2 to allow cells to attach to the plates. […] After the incubation, 0.4 mg mL^−1 MTT (3-(4,5-dimethylthiazol-2-yl)−2,5-diphenyltetrazolium bromide) (Invitrogen) was added to each well. The plates were then incubated for 2 h at 37 °C, 5% CO2. The media was removed, and purple formazan crystals were resuspended in 60 μL of DMSO. The absorbance was read at 570 nm using a Polarstar Omega plate reader. The data was then analysed by Prism software. Results are presented as the average percentage of control ± S.D. for each set of duplicate wells using the following equation: percent viability = (ABSTEST – ABSPOSITIVE CTRL / ABSUNTREATED –ABS POSITIVE CTRL)×100.

Cytotoxicity MTT assay [5] = assay type: cell-based, human; conditions: human; remark: listed apart in the source
Procedure: Compound cytotoxicity was evaluated against HepG2 (ATCC-®HB-8065 liver hepatoceullular carcinoma) and HEK293 (ATCC®CRL-1573, embryonic kidney) human cell lines using standard (3-(4,5-dimethylthiazol-2-yl)−2,5-diphenyltetrazolium bromide (MTT) assay protocol with slight changes. In brief, HepG2 and HEK293 cells (assessed annually for mycoplasma contamination) were seeded as 1.5 × 10^4 cells per well in a clear 96-well tissue culture treated plate in a final volume of 100 μL in Dulbecco’s Modified Eagle Medium (DMEM)(GIBCO-Invitrogen #11995-073), in which 1% of FBS was added. Cells were incubated for 24 h at 37 °C, 5% CO2 to allow cells to attach to the plates. Compounds prepared at 100 µM to 0.046 µM in threefold dilutions were added into each well and incubated for 24 h at 37 °C, 5% CO2. After the incubation, 0.4 mg mL^−1 MTT (3-(4,5-dimethylthiazol-2-yl)−2,5-diphenyltetrazolium bromide) (Invitrogen) was added to each well. The plates were then incubated for 2 h at 37 °C, 5% CO2. The media was removed, and purple formazan crystals were resuspended in 60 μL of DMSO. The absorbance was read at 570 nm using a Polarstar Omega plate reader. The data was then analysed by Prism software. Results are presented as the average percentage of control ± S.D. for each set of duplicate wells using the following equation: percent viability = (ABSTEST – ABSPOSITIVE CTRL / ABSUNTREATED –ABS POSITIVE CTRL)×100.

[6] = system: Methicillin-resistant S. aureus ATCC 43300; experiment: microbe, parasite or virus in culture
Procedure, shortened: as §1

in vitro = conditions: human, 50% human plasma (pooled, sodium heparin) in PBS, pH 7.4
[7] = 37 °C, 20 µM
[8] = system: Bacillus subtilis ATCC 6633; experiment: microbe, parasite or virus in culture; assay type: cell-based; conditions: for Ac2Kaa concentration required to neutralise MIC activity / MIC: ATCC 6633, 48 h
Procedure: All compounds were dissolved in H2O. Bacillus subtilis ATCC® 6633™ NRS-231 was cultured in MHB at 37 °C for 48 h. A sample of each culture was then diluted 40-fold in fresh MHB and incubated at 37 °C for 18 h. Compounds were added to each row of 96-well NBS plates (NBS, Corning 3641), in duplicate. The tripeptide N,N΄-diacetyl-L-Lys-D-Ala-D-Ala was serially diluted twofold across the compound-containing wells from 6400 to 3 µg mL^−1. To this the resultant mid-log phase cultures were diluted to the final concentration of 5 × 10^5 CFU mL^−1, then added to wells of the compound-containing plates. All the plates were covered and incubated at 37 °C for 24 h.

Haemolysis assay = assay type: cell-based; conditions: human, whole blood
Procedure: Haemolytic activity was measured as previously described with slight modifications, [45]. Fresh human venal blood was collected from healthy volunteers and pretreated with the anticoagulant sodium citrate. Serial twofold dilutions of each antibiotic, dissolved in 0.9% NaCl solution, were added to fresh human whole blood (50% final, vol:vol) to the final volume of 80 μL and incubated at 37 °C for 3 h on a horizontal shaker at 200 rpm. For negative and positive controls, human whole blood in 0.9% NaCl solution (A blank) and in sdH2O (A water) were used, respectively. After incubation, both test and A blank were mixed with 1 mL 0.9% NaCl solution, or sdH2O for the complete […] A water. After centrifugation of samples at 2500 rpm (700 × g) for 5 min, the release of haemoglobin was monitored by measuring the absorbance (A sample) of the supernatant at 540 nm using BMG Labtech PolarStar Omega multimode reader. The percentage of haemolysis was calculated according to the equation: %haemolysis=Asample-Ablank∕Awater-Ablank×100

Row | Compound | MIC +50% HS (MRSA) | remaining at 1 h, 20 µM (in vitro) | remaining at 3 h, 20 µM (in vitro) | remaining at 6 h, 20 µM (in vitro) | remaining at 24 h, 20 µM (in vitro) | MIC VRE ([1]; ATCC 51559) | MIC MDR S.P. ([2]; ATCC 700677) | MIC VISA ([3]; Vancomycin-intermediate NRS1) | % compound remaining after incubation in 50% human plasma, 0h [7] | CC50 at 24 h (Cytotoxicity MTT assay [4]) | CC50 at 24 h (Cytotoxicity MTT assay [5]) | MIC MRSA ([6]; ATCC 43300, 24 h) | Ac2Kaa concentration required to neutralise MIC activity [8] | MIC [8] | also measured
1 | POB2K-K-Dap-K(Vancomycin)-NHMe [Compound 27] | 0.25 µg/mL and 0.375 µg/mL | – | – | – | – | – | – | – | – | – | – | – | – | – | –
2 | CCCCCCCCCCCCCC(=O)NCC(=O)N[C@@H](CO)C(=O)N[C@@H](CO)C(=O)N[C@@H](CCCCN)C(=O)N[C@@H](CO)C(=O)N1CCC[C@H]1C(=O)N[C@@H](CO)C(=O)N[C@@H](CCCCN)C(=O)N[C@@H](CCCCN)C(=O)N[C@@H](CCCCN)C(=O)N[C@@H](CCCCN)C(=O)N[C@@H](CCCCN)C(=O)N[C@@H](CCCCN)C(=O)N1CCC[C@H]1C(=O)NCC(=O)N[C@@H](CC(=O)O)C(=O)N[C@@H](CSSCCNC(=O)[C@H]1NC(=O)[C@H]2NC(=O)[C@H](NC(=O)[C@@H]3NC(=O)[C@H](CC(N)=O)NC(=O)[C@H](NC(=O)[C@@H](CC(C)C)NC)[C@H](O)c4ccc(c(Cl)c4)Oc4cc3cc(c4O[C@@H]3O[C@H](CO)[C@@H](O)[C@H](O)[C@H]3O[C@H]3C[C@](C)(N)[C@H](O)[C@H](C)O3)Oc3ccc(cc3Cl)[C@H]2O)c2ccc(O)c(c2)-c2c(O)cc(O)cc21)C(N)=O [Compound 8] | >8 µg/mL | – | – | – | – | – | – | – | – | – | – | – | – | – | MIC VRE ([1]; E. faecium MDR VanA ATCC 51559, substance alone): 0.125 µg/mL (≈ 0.0357 µM); MIC MDR S.P. ([2]; S. pneumoniae ATCC 700677): 0.5 µg/mL (≈ 0.143 µM); MIC VISA ([3]; S. aureus NRS1): 4 µg/mL (≈ 1.14 µM); CC50 at 24 h (Cytotoxicity MTT assay [4]; 24 h, MTT, 1% FBS, read-out: Cytotoxicity CC50 HepG2): 10 µM; CC50 at 24 h (Cytotoxicity MTT assay [5]; 24 h, MTT, 1% FBS, read-out: Cytotoxicity CC50 HEK293): 22 µM; MIC MRSA ([6]; S. aureus ATCC 43300, NBS plates, MHB, 24 h, substance alone): 0.5 µg/mL (≈ 0.143 µM)
3 | CCCCCCCCCCCCCC(=O)N[C@@H](CCCCN)C(=O)N[C@@H](CCCCN)C(=O)N[C@@H](CCCCN)C(=O)N[C@@H](CSSCCNC(=O)[C@H]1NC(=O)[C@H]2NC(=O)[C@H](NC(=O)[C@@H]3NC(=O)[C@H](CC(N)=O)NC(=O)[C@H](NC(=O)[C@@H](CC(C)C)NC)[C@H](O)c4ccc(c(Cl)c4)Oc4cc3cc(c4O[C@@H]3O[C@H](CO)[C@@H](O)[C@H](O)[C@H]3O[C@H]3C[C@](C)(N)[C@H](O)[C@H](C)O3)Oc3ccc(cc3Cl)[C@H]2O)c2ccc(O)c(c2)-c2c(O)cc(O)cc21)C(=O)O [Compound 15, nC13CO-KKKC(SCH 2 CH 2 NH-Vancomycin)-OH] | – | 77% | 64% | 51% | 3% | 0.02 µg/mL (≈ 0.009 µM) | <0.003 µg/mL | 0.02 µg/mL (≈ 0.009 µM) | 100% | 11 µM | 18 µM | <0.003 µg/mL | – | – | –
4 | CCCCCCCCCCCCCC(=O)NCC(=O)N[C@@H](CO)C(=O)N[C@@H](CCCCN)C(=O)N[C@@H](CCCCN)C(=O)N[C@@H](CCCCN)C(=O)N[C@@H](CSSCCNC(=O)[C@H]1NC(=O)[C@H]2NC(=O)[C@H](NC(=O)[C@@H]3NC(=O)[C@H](CC(N)=O)NC(=O)[C@H](NC(=O)[C@@H](CC(C)C)NC)[C@H](O)c4ccc(c(Cl)c4)Oc4cc3cc(c4O[C@@H]3O[C@H](CO)[C@@H](O)[C@H](O)[C@H]3O[C@H]3C[C@](C)(N)[C@H](O)[C@H](C)O3)Oc3ccc(cc3Cl)[C@H]2O)c2ccc(O)c(c2)-c2c(O)cc(O)cc21)C(=O)O [Compound 14] | – | 119% | – | 82% | 18% | 0.09 µg/mL (≈ 0.038 µM) | <0.003 µg/mL | <0.003 µg/mL | 100% | 4 µM | 11 µM | <0.003 µg/mL | > 3200 µg/mL | ≤ 0.004 µg/mL | hemolysis at 3 h (Haemolysis assay; 100 µg mL-1): 0.4%; hemolysis at 3 h (Haemolysis assay; 1600 µg mL-1): 6.4%
5 | CCCCCCCCCCC(=O)N[C@@H](CCCCNC(=O)[C@H]1NC(=O)[C@H]2NC(=O)[C@H](NC(=O)[C@@H]3NC(=O)[C@H](CC(N)=O)NC(=O)[C@H](NC(=O)[C@@H](CC(C)C)NC)[C@H](O)c4ccc(c(Cl)c4)Oc4cc3cc(c4O[C@@H]3O[C@H](CO)[C@@H](O)[C@H](O)[C@H]3O[C@H]3C[C@](C)(N)[C@H](O)[C@H](C)O3)Oc3ccc(cc3Cl)[C@H]2O)c2ccc(O)c(c2)-c2c(O)cc(O)cc21)C(=O)O [Compound 20, nC10CO-K(Vancomycin)-OH] | – | 101% | 101% | 100% | 89% | >8 µg/mL | 0.19 µg/mL (≈ 0.109 µM) | 1.5 µg/mL (≈ 0.859 µM) | 100% | > 500 µM | > 500 µM | 0.125 µg/mL (≈ 0.0716 µM) | 12.5 µg/mL | 0.03 µg/mL (≈ 0.0172 µM) | Molar excess of Ac2Kaa ligand required to antagonise antibacterial activity ([8]; [ligand]/[antibiotic], B. subtilis ATCC 6633, 24 h): 663
